Measured values as given in US20220403009A1 (IGM BIOSCIENCES, published 2022).
“And” between values parts separate entries of the source, which are not always exact repeats. Equal entries are not always repeated. Where two headings read alike, the source gives them in different places.

Legend:
SARS-CoV-2 RBD E484K [1] = molecular target: T1, SARS-CoV-2 RBD E484K (SARS-CoV-2, UniProt P0DTC2 319-541); test: BLI, blocking of ACE2-Fc binding to RBD
SARS-CoV-2 RBD G446V [2] = molecular target: T2, SARS-CoV-2 RBD G446V (SARS-CoV-2, UniProt P0DTC2 319-541); test: BLI, blocking of ACE2-Fc binding to RBD
SARS-CoV-2 RBD Y453F [3] = molecular target: T3, SARS-CoV-2 RBD Y453F (SARS-CoV-2, UniProt P0DTC2 319-541); test: BLI, blocking of ACE2-Fc binding to RBD
SARS-CoV-2 RBD K417E [4] = molecular target: T4, SARS-CoV-2 RBD K417E (SARS-CoV-2, UniProt P0DTC2 319-541); test: BLI, blocking of ACE2-Fc binding to RBD
SARS-CoV-2 RBD E484K [5] = molecular target: T1, SARS-CoV-2 RBD E484K; test: BLI, RBD on anti-Penta-His sensor
SARS-CoV-2 RBD G446V [6] = molecular target: T2, SARS-CoV-2 RBD G446V; test: BLI, RBD on anti-Penta-His sensor
SARS-CoV-2 RBD Y453F [7] = molecular target: T3, SARS-CoV-2 RBD Y453F; test: BLI, RBD on anti-Penta-His sensor
SARS-CoV-2 RBD K417E [8] = molecular target: T4, SARS-CoV-2 RBD K417E; test: BLI, RBD on anti-Penta-His sensor
SARS-CoV-2 RBD E484K [9] = molecular target: T1, SARS-CoV-2 RBD E484K; test: BLI, RBD on anti-Penta-His sensor; remark: listed apart in the source
SARS-CoV-2 RBD G446V [10] = molecular target: T2, SARS-CoV-2 RBD G446V; test: BLI, RBD on anti-Penta-His sensor; remark: listed apart in the source
SARS-CoV-2 RBD Y453F [11] = molecular target: T3, SARS-CoV-2 RBD Y453F; test: BLI, RBD on anti-Penta-His sensor; remark: listed apart in the source
SARS-CoV-2 RBD K417E [12] = molecular target: T4, SARS-CoV-2 RBD K417E; test: BLI, RBD on anti-Penta-His sensor; remark: listed apart in the source
SARS-CoV-2 RBD E484K [13] = molecular target: T1, SARS-CoV-2 RBD E484K; test: BLI, blocking of ACE2-Fc binding to RBD; remark: listed apart in the source
SARS-CoV-2 RBD G446V [14] = molecular target: T2, SARS-CoV-2 RBD G446V; test: BLI, blocking of ACE2-Fc binding to RBD; remark: listed apart in the source
SARS-CoV-2 RBD Y453F [15] = molecular target: T3, SARS-CoV-2 RBD Y453F; test: BLI, blocking of ACE2-Fc binding to RBD; remark: listed apart in the source
SARS-CoV-2 RBD K417E [16] = molecular target: T4, SARS-CoV-2 RBD K417E; test: BLI, blocking of ACE2-Fc binding to RBD; remark: listed apart in the source
SARS-CoV-2 RBD E484K [17] = molecular target: T1, SARS-CoV-2 RBD E484K; test: BLI, RBD on anti-Penta-His sensor; remark: listed apart in the source
SARS-CoV-2 RBD G446V [18] = molecular target: T2, SARS-CoV-2 RBD G446V; test: BLI, RBD on anti-Penta-His sensor; remark: listed apart in the source
SARS-CoV-2 RBD Y453F [19] = molecular target: T3, SARS-CoV-2 RBD Y453F; test: BLI, RBD on anti-Penta-His sensor; remark: listed apart in the source
SARS-CoV-2 RBD K417E [20] = molecular target: T4, SARS-CoV-2 RBD K417E; test: BLI, RBD on anti-Penta-His sensor; remark: listed apart in the source
SARS-CoV-2 RBD E484K [21] = molecular target: T1, SARS-CoV-2 RBD E484K; test: BLI, blocking of ACE2-Fc binding to RBD; remark: listed apart in the source
SARS-CoV-2 RBD G446V [22] = molecular target: T2, SARS-CoV-2 RBD G446V; test: BLI, blocking of ACE2-Fc binding to RBD; remark: listed apart in the source
SARS-CoV-2 RBD Y453F [23] = molecular target: T3, SARS-CoV-2 RBD Y453F; test: BLI, blocking of ACE2-Fc binding to RBD; remark: listed apart in the source
SARS-CoV-2 RBD K417E [24] = molecular target: T4, SARS-CoV-2 RBD K417E; test: BLI, blocking of ACE2-Fc binding to RBD; remark: listed apart in the source

B1: Ab7 IgM (antibody)
VH: EVQLVESGGGLVQPGGSLRLSCAVSGFTVSSNYMSWVRQAPGKGLEWVSVIYTGGGTYYADSVKGRFTISRDNSKNTLYLQMNTLRAEDTTVYYCARGDGSYYRAFDYWGQGTLVTVSS
VL: DIQMTQSPSSLSASVGDRVTITCRASQSISNYLNWYHQKPGKAPKLLIYAASSLQSGVPSRFSGSGSGTDFTLTISSLQPEDFATYYCQQSYSPPPTFGPGTKVEIK
chain: not shown
Question: For B1, which IC50 (SARS-CoV-2 RBD E484K [1]) is on record?
Answer: 0.87 nM and 0.76 µg/mL

Question: What about the IC50 (SARS-CoV-2 RBD G446V [2]) of the same binder?
Answer: 0.32 nM and 0.28 µg/mL

Question: And the IC50 (SARS-CoV-2 RBD Y453F [3])?
Answer: 0.42 nM and 0.36 µg/mL

Question: What about the IC50 (SARS-CoV-2 RBD K417E [4]) of the same binder?
Answer: 0.36 nM and 0.31 µg/mL

Question: What about the Kd (SARS-CoV-2 RBD E484K [5]) of the same binder?
Answer: 7 pM

Question: And the Kd (SARS-CoV-2 RBD G446V [6])?
Answer: < 1 pM

Question: What about the Kd (SARS-CoV-2 RBD Y453F [7]) of the same binder?
Answer: < 1 pM

Question: And the Kd (SARS-CoV-2 RBD K417E [8])?
Answer: < 1 pM

B2: Ab7 IgG (antibody, V domains shown)
VH: EVQLVESGGGLVQPGGSLRLSCAVSGFTVSSNYMSWVRQAPGKGLEWVSVIYTGGGTYYADSVKGRFTISRDNSKNTLYLQMNTLRAEDTTVYYCARGDGSYYRAFDYWGQGTLVTVSS
VL: DIQMTQSPSSLSASVGDRVTITCRASQSISNYLNWYHQKPGKAPKLLIYAASSLQSGVPSRFSGSGSGTDFTLTISSLQPEDFATYYCQQSYSPPPTFGPGTKVEIK
Question: Which IC50 (SARS-CoV-2 RBD E484K [1]) does the source give for B2 here?
Answer: > 69 nM and > 10 µg/mL

Question: What about the IC50 (SARS-CoV-2 RBD G446V [2]) of the same binder?
Answer: 2.1 nM and 0.3 µg/mL

Question: And the IC50 (SARS-CoV-2 RBD Y453F [3])?
Answer: 3.2 nM and 0.46 µg/mL

Question: What about the IC50 (SARS-CoV-2 RBD K417E [4]) of the same binder?
Answer: 2.4 nM and 0.35 µg/mL

Question: What about the Kd (SARS-CoV-2 RBD G446V [6]) of the same binder?
Answer: < 1 pM

Question: And the Kd (SARS-CoV-2 RBD Y453F [7])?
Answer: < 1 pM

Question: What about the Kd (SARS-CoV-2 RBD K417E [8]) of the same binder?
Answer: < 1 pM

B3: Ab10 IgM (antibody)
VH: QITLKESGPTLVKPTQTLTLTCTFSGFSLSTSGVGVGWIRQPPGKALEWLALIYWDDDKRYSPSLKSRLTITKDTSKNQVVLTMTNMDPVDTATYYCAHHKIERIFDYWGQGTLVTVSS
VL: QSALAQPASVSGSPGQSITISCTGTSSDVGAYNYVSWYQQHPGKAPKLMIYDVSKRPSGVSNRFSGSKSGNTASLTISGLQAEDEADYYCSSYTTSSTVFGGGTKLTVL
chain: not shown
Question: With B3 as the binder, how does the Kd (SARS-CoV-2 RBD E484K [9]) read?
Answer: < 1 pM

Question: And the Kd (SARS-CoV-2 RBD G446V [10])?
Answer: 110 pM

Question: What about the Kd (SARS-CoV-2 RBD Y453F [11]) of the same binder?
Answer: < 1 pM

Question: And the Kd (SARS-CoV-2 RBD K417E [12])?
Answer: < 1 pM

Question: What about the IC50 (SARS-CoV-2 RBD E484K [13]) of the same binder?
Answer: 0.47 nM and 0.41 µg/mL

Question: What about the IC50 (SARS-CoV-2 RBD G446V [14]) of the same binder?
Answer: 5 nM and 4.3 µg/mL

Question: What about the IC50 (SARS-CoV-2 RBD Y453F [15]) of the same binder?
Answer: 0.49 nM and 0.42 µg/mL

Question: What about the IC50 (SARS-CoV-2 RBD K417E [16]) of the same binder?
Answer: 0.32 nM and 0.28 µg/mL

B4: Ab10 IgG (antibody, V domains shown)
VH: QITLKESGPTLVKPTQTLTLTCTFSGFSLSTSGVGVGWIRQPPGKALEWLALIYWDDDKRYSPSLKSRLTITKDTSKNQVVLTMTNMDPVDTATYYCAHHKIERIFDYWGQGTLVTVSS
VL: QSALAQPASVSGSPGQSITISCTGTSSDVGAYNYVSWYQQHPGKAPKLMIYDVSKRPSGVSNRFSGSKSGNTASLTISGLQAEDEADYYCSSYTTSSTVFGGGTKLTVL
Question: What does the source list for B4?
Answer: Kd (SARS-CoV-2 RBD E484K [9]): < 1 pM; Kd (SARS-CoV-2 RBD G446V [10]): 120000 pM; Kd (SARS-CoV-2 RBD Y453F [11]): < 1 pM; Kd (SARS-CoV-2 RBD K417E [12]): < 1 pM; IC50 (SARS-CoV-2 RBD E484K [13]): 10 nM and 1.5 µg/mL; IC50 (SARS-CoV-2 RBD G446V [14]): > 69 nM and > 10 µg/mL; IC50 (SARS-CoV-2 RBD Y453F [15]): 8.6 nM and 1.2 µg/mL; IC50 (SARS-CoV-2 RBD K417E [16]): 3.8 nM and 0.55 µg/mL

B5: Ab8 IgM (antibody)
VH: EVQLVESGGGLIQPGGSLRLSCAASGFTVSRNYMNWVRQAPGKGLEWVSVIYSGGSTFYADSVKGRFTISRDNSKNTLYLQMNSLRAEDTAVYYCARDASSYGIDWGQGTLVTVSS
VL: not shown
chain: not shown
Question: B5 was tested. Which Kd (SARS-CoV-2 RBD E484K [17]) did it give?
Answer: < 1 pM

Question: And the Kd (SARS-CoV-2 RBD G446V [18])?
Answer: < 1 pM

Question: And the Kd (SARS-CoV-2 RBD Y453F [19])?
Answer: < 1 pM

Question: And the Kd (SARS-CoV-2 RBD K417E [20])?
Answer: < 1 pM

Question: And the IC50 (SARS-CoV-2 RBD E484K [21])?
Answer: 1.3 µg/mL and 1.5 nM

Question: And the IC50 (SARS-CoV-2 RBD G446V [22])?
Answer: 0.78 µg/mL and 0.9 nM

Question: And the IC50 (SARS-CoV-2 RBD Y453F [23])?
Answer: 0.98 µg/mL and 1.1 nM

Question: What about the IC50 (SARS-CoV-2 RBD K417E [24]) of the same binder?
Answer: 1 µg/mL and 1.2 nM

B6: Ab8 IgG (antibody, V domains shown)
VH: EVQLVESGGGLIQPGGSLRLSCAASGFTVSRNYMNWVRQAPGKGLEWVSVIYSGGSTFYADSVKGRFTISRDNSKNTLYLQMNSLRAEDTAVYYCARDASSYGIDWGQGTLVTVSS
VL: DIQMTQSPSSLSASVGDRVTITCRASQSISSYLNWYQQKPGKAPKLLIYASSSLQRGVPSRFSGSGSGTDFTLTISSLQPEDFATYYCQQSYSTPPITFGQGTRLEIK
Question: With B6 as the binder, how does the Kd (SARS-CoV-2 RBD E484K [17]) read?
Answer: < 1 pM

Question: What about the Kd (SARS-CoV-2 RBD G446V [18]) of the same binder?
Answer: < 1 pM

Question: And the Kd (SARS-CoV-2 RBD Y453F [19])?
Answer: < 1 pM

Question: And the Kd (SARS-CoV-2 RBD K417E [20])?
Answer: 2000 pM

Question: And the IC50 (SARS-CoV-2 RBD E484K [21])?
Answer: 2.8 µg/mL and 19 nM

Question: What about the IC50 (SARS-CoV-2 RBD G446V [22]) of the same binder?
Answer: 0.88 µg/mL and 6.1 nM

Question: What about the IC50 (SARS-CoV-2 RBD Y453F [23]) of the same binder?
Answer: 1 µg/mL and 7.2 nM

Question: And the IC50 (SARS-CoV-2 RBD K417E [24])?
Answer: 1 µg/mL and 7.2 nM
